Data: the DeepSol protein solubility set

Experiment: soluble on expression in E. coli; label from the status in PepcDB or PDB records

Sequence | soluble on expression in E. coli
MGSDKIHHHHHHMIVEMTGIHKSFSGNPVLKDVSFTLEKGEIHALMGENGAGKSTLMKILTGIYERDSGTVKIKGREVHYKHPKEAEADGLAVIHQELNILPELTVAENLFVGKERTYGKTGWIKSKEMNRLAEEKLAELGLKVKGTERAGNLSVGKQQLIEIAKALMTNADIIIMDEPTAALTDREIDTLFATVRELQKKGVTFVYISHRMEEIFSLCQRITVLRDGEYVGTKVIAETSFDEIVKMMVGRALGNRFPEHTLTPGDVKLEIKHLTRAGEFENVSLSVRAGEILGISGLMGAGRSELVETIFGYRKADSGEVWIDGKQAAIKGPDQAIAQGIGFVSEDRKSKGLIVDFSIRDNISLTNLSRISTSSWISSEKERSLYEELAKKLHVKASGPSQQAKSLSGGNQQKIVIAKWLGIEPKILILDEPTRGVDVGAKKEIYTIMNELAKQGVAIIMVSSELPEVIGLSTRVAVMFEGKLMHILERDELSEETIMHYATGGDKHVRQ | not soluble
MENSIEAYLADSREKVTLGTVVDCFKGKAVSSKVVPGDVGLINLSDMGTLGIQYHQLRTFQMDRRQLLRYLLEDGDVLIASKGTLKKVCVFHKQNRDVVASSNITVLRPQKLLRGYYIKFFLDSPIGQALLDVADHGKDVINLSTKELLDIPIPVIPLVKQDYLINHYLRGLTDYHRKLNRAEQEWEYIQNEIQKGLG | soluble
MSLINEATLAESIRRLRQGERATLAQAMTLVESRHPRHQALSTQLLDAIMPYCGNTLRLGVTGTPGAGKSTFLEAFGMLLIREGLKVAVIAVDPSSPVTGGSILGDKTRMNDLARAEAAFIRPVPSSGHLGGASQRARELMLLCEAAGYDVVIVETVGVGQSETEVARMVDCFISLQIAGGGDDLQGIKKGLMEVADLIVINKDDGDNHTNVAIARHMYESALHILRRKYDEWQPRVLTCSALEKRGIDEIWHAIIDFKTALTASGRLQQVRQQQSVEWLRKQTEEEVLNHLFANEDFDRYYRQTLLAVKNNTLSPRTGLRQLSEFIQTQYFDEGHHHHHH | soluble
MAGDPMFKLKINNFQLGFKLVQWPVTNHLLKHFYVFPINNKGGLAIKRIISLALFKKRLNKDKINNCHVWEEELPDGSYDMGFNGNFNHMEKRKSGYVTQKQFSEFKDANNQRLIKIETTLAIQGEQINKLTQTVEKQGEQINQLVQVVLLQGASKLENFKWSKKHKDKSLMPAWIVWKIFWWKVLEHHHHHH | not soluble
AIAATPTEHEDLSEQEVTEDEFKTPKIRETPEDIKLEAIVNTIAFHPKQDILAAGDIDGDIYLFSYSCTEGENKELWSSGHHLKSCRKVLFSSDGQKLFSVSKDKAIHIMDVEAGKLETRIPKAHKVPINAMLLIDENIFATGDDEGTLKVWDMRKGTSFMDLKHHEDYISDITIDQAKRTLLTSSGDGTLGVFNIKRRRFELLSEIQNGDLTSVSIMKRGRKVVCGSGEGTIYIFNWNGFGATSDRFAVQAESVDCIVPITDSILCAASTDGVIRAINILPNRVVGSIGQHVGEAIEEIARCRDTHFLASCAHDELIKFWDISSLPDEKVNDYRRRKKKDRRLKALSNKAFDTGQNFFAGLLDTTEENGKEGENDEDDDDEDSDSGSD | soluble
MGSDKIHHHHHHMSKPLNFVMISPHFPANFETFAVRLKECGFNTLGIADTPYEQLSENLRNSLTEYYRVDNMEDYEQVYRAVGYFAHKYGRIDRIESHNEYWLELDAKLRTDFNVPGYKNDDMLAIKTKAQMKEIFRQAGLKVAQGKVFNSDDEARKLAKKLKFPVIIKPNSGVGASDTYKIKSVQELEDFFSYKNAHVEYIMEEFIDGDIITFDGLTDKEGNIVFYSGLEYSECVLDTVENDNDMFYYVPREISTDLIKLGQKCVDAFNVRERFFHFEFFRVKKTGDLMPLEINCRPPGGLTIDMWNYANDFDVFREYANIVKENKFYTNITHPWNVVYISRKANKNYVNAIEDVQQKYSTNIISVQTVPGVFAKIMGEHGILARTETLDQMHEIAQFAQQKA | not soluble
MANVYTAEATATGGRAGTTRSSDDRLNLDLSVPAEMGGDGGPGTNPEQLFAAGYAACFQGALGVVSRRNKIDVPADSTITARVGLQKAGLAFALDVELEGHFPGLSREQAEGLMHAAHEVCPYSAATRNNVDVRLKVRE | soluble
MEDLEEDVRFIVDETLDFGGLSPSDSREEEDITVLVTPEKPLRRGLSHRSDPNAVAPAPQGVRLSLGPLSPEKLEEILDEANRLAAQLEQCALQDRESAGEGLGPRRVKPSPRRETFVLKDSPVRDLLPTVNSLTRSTPSPSSLTPRLRSNDRKGSVRALRATSGKRPSNMKRESPTCNLFPASKSPASSPLTRSTPPVRGRAGPSGRAAASPPTPIRSVLAPQPSTSNSQRLPRPQGAAAKSSSQLPIPSAIPRPASRMPLTSRSVPPGRGALPPDSLSTRKGLPRPSTAGHRVRESGHKVPVSQRLNLPVMGATRSNLQPPRKVAVPGPTR | soluble
MSLAEFFKDSKASLELRNFYMNKDFRDEVSSAANQQSKQDEWAQGFILKYESGYTEGPVGFGLDMLGLLGVKLDSGPGEAGTGLLPGGYNNRAPDDYSELGVTGKVRFSKTELKVGTLLPKNPVLVYNDTRLLPQTFQGGNLQIKEIEGLTLDFGYLDEVNYRNSTHNEEMSLVNANRRNITIKPGAENEANFFMYGGATYQVTKALTATYYYGELDDLYKQHAVNLVHVLPLGKSSLKTDLRYARSTDDGEAHVDNHAFGLLTTYAMGAHKFGLGLQKMQGDTGFAQINGTDPFLVNYIQVNDFGNADERSWQLRYDYDFAALGIPGLTFMTRYVSGDHVDRGPGSDGKEWERDMDIAYVFQSGMLKNLSLKWRNATMRSNFVRDVDENRLIVSYTLPLLEGHHHHHH | not soluble
MADLPISLLQTLAYKQPLGRNSRIVHFTDGALFPVVAFGDNHSTSELYIAVRGDHRDLMSPDVRDSYALTGDDHKVWGATHHTYYVEGAPKKPLKFNVKTRTDLTILPVADVFWRADGSADVDVVWNDMPAVAGQSSSIALALASSLPFVPKAAYTGCLSGTNVQPVQFGNLKARAAHKIGLPLVGMTQDGGEDTRICTLDDAADHAFDSMESTVTR | soluble
MGSDKIHHHHHHMKELENYYGRLFTKYQLTAKEREIAEKVPSITKKNNCFRCGTTFKEENKLPNDAYYCRACLLLGRVRSDEKLYHFPQKDFPITKCLKWKGQLTDWQQRISDGLVANVENNRATLVHAVTGAGKTEMIYHTVASVIDKGGAVCLASPRIDVCIELYKRLQNDFSVPISLLHGESEPYFRTPLVVATTHQLLKFYQAFDLVLIDEVDAFPYADNPMLYQAADNAVKEAGVQVFLTATSTDELDKKVRTGKLSRLSLPRRFHGNPLVVPQKVWFSKFDDTLKKNRLVPKLKKAIEEQRKSGFPLLIFVPEISKGQEFTKIMKKTFPEETIGFVSSQTENRLEIVEGFRKREITVLISTTILERGVTFPCVDVFVVQANHYLYTASSLVQIAGRVGRSIERPTGLLQFYHEGSTGAIEKAIAEIKQMNKEAGYV | not soluble
MGSDKIHHHHHHMADYTKMWSELGLDLKSHDALLSILGSAYGDIFLSQKDRPEGMKYFDFVMSEVHGLRIQELMEAKARGRIVVGSYCVFVPEELILAVDGVSVGLCAGAEFNFEGAEEVLPRNTCALIKSAFGFKFGKVCPYLEACDVVVGENTCDGKKKAYEILGPLVTDLYVIDLHQTKSDMGRALLKEEYRRFAAKLESVSGKKITPDSLKKGIEVVNAKRMAVKRLAAIRAADPAPISGLDALLVNQVFFYDDPVRFTHSVNQLCDELEERVKQGIGVFAQGTTRVIVSGCPMAVPNWKLPMLIESSNAVIVGEESCVGERGTRWLTEFRGETEEDLLDALTERYFSIDCAVFTPNPSRVDYVKEMTKKLNAQGVIHYSLQFCQPHMVESGPVEKELEKSGIPTLRLETDYSQEDAGQLKTRIEAFVERLENK | not soluble
MAHHHHHHMSTGHLRSVQLCRGQLRSLSHSSSMVGLRDFCNLVDECIKDIGVLKVNADDARILLHKRQQTFPSRHCDGVLAQTQVLYAQVLLKNLAEPVNRLIVRPVAVKNEGSEGLGVLHKPYDGAQSASPEIIAAQLELLQRAHRPTALNVLQDCRVHAATLLRAVRAVQLAQVRFSPHEKCTNTHGPKKKKK | not soluble
MLAMKLGIVGLGGWVTGAHIPALTDLGIKVDYCADIDEKRVKDLSQKTGCKGYLDYKEMLRNENPDLVLVAVPHSLHAIIALDAINNDANVYVEKPMATSFQEALTLVEASRKRNKILVVGHENRFNPAMLIAKKLIRGGEVGKIYHMRGFYIRQRGIPTSPTFIKKDLAKGGAVFDIGTHIIDLLLFLSDFPTPKSVTGKTYNAFSEDKTKFSAYPSPNLPNFKVEVEDFGSAFLKLGDEISAYVEVSWASYIKENKMEVVILGDNGGIHIDNGVLNFMRNIEDELFISSPLTQQKGSVYREVWRTVMESISKGFPEYPLCSAEQGAIGVAILESIYKSALEGREVKIDIPQWFLKQFQPRALEHHHHHH | not soluble
MKMNEIVASTQFPNTIETITKDLKALGVEKGMTIIVHSSLSSIGWISGGAVAVVEALMKVVTEEGTIIMPTQSSDLSDPKHWSRPPVPEDWWQIIRDNVPAFDSRITPTRGMGEIVECFRTYPNVVRSNHPLGSFAAWGKHAVEITMNHSLSMSFGEESPLRKIYDLDGYVLLIGVGYDSNTSVHLSEVRSGACELIQVGAPIIENGERVWKEFVEMDYESEKFVEIGVEFERKGTVKNGKIGNATCRLMKQRDIVDFGTEWFRKKN | not soluble
MDERDALRISREIAGEVRKAIASMPLRERVKDVGMGKDGTPTKAADRVAEDAALEILRKERVTVVTEESGVLGEGDVFVALDPLDGTFNATRGIPVYSVSLCFSYSDKLKDAFFGYVYNLATGDEYYADSSGAYRNGERIEVSDAEELYCNAIIYYPDRKFPFKRMRIFGSAATELCFFADGSFDCFLDIRPGKMLRIYDAAAGVFIAEKAGGKVTELDGESLGNKKFDMQERLNIVAANEKLHPKLLELIK | soluble
SKDLSVSLQANFTYNKNKMVYVDEPEYPTIWKSETGKPYSRITGYIAEGLFKSQEEIDNSPAQNLGSTPKVGDIKYRDLNGDGIIDSDDQTMISKYGSTPRLQYGFGGTVNYKKFDFGVFFSGSALRSIMTNGIDPFQEGIAVGNRNVLKYIADNYWSEEKQNWDAKYPRLGLLATDVANNTVNSSYWLRNGSFLRLKNVEVGYKIPYGRIFVSAANLFTFSPFDLWDPELSSWNSYPMQKTVNVGIQLQF | not soluble
MTLGTALKQARKAQQLNQKQAARGICAQSMLSAIENDRYVPNARLLLALCQRLGVAVSTLSLADDFEISAEQAFNDRVRQMCNAHQYQQLKDWLLQPTTLEHVQTDEQTQAYYYYLGVACWQVDRTSDAAQQNLRLAIGMAAPSSPPTTLTRLALISLAVVKAHHHPQAPVAALVTRALADIDAGAYEENANIVFYLAGLVAYEQHDSQLAVARLTQGLAFATTHDSHYMLANIYQLMAQLAMAAGETATAQVASQRSQVFKDLFKEQINDRL | not soluble
MAKATYACVECGYRTPKPLGRCPSCGSWESFQEVAPAPASRRAKPSPLPLLALSQVDEAEERRFSSGLSEVDRVLGGGFVTGEVVLLGGEPGVGKSTLLLEMAKRMPQRVYYVAGEESPAQIKLRAQRLGVKDLLLVRETRLEPLLALLEEDPPEVLFVDSVQTLEAGGSPGSLVAVREATSALVRFAKERGVAVVLVGHVTKEGVVAGPKSVEHAVDATLYLETAGPYRVLRSAKNRFGPVGEIGVFRMEEAGLLEVENPSEAFLKERPLGVPGSAVALALAGERALALEVQALAAKTPFPAPRRVVQGLDGRRVDVVLAVLERRLGLPLANLDVYVNLAGGLKVQDPGLDLAVALAVYSAVVGRPLPVDLALVGEVGLAGEVRRVAVLERRLREGERAGFGRFLHPGNLKRLQEAVEAYLA | soluble
